The record followed here is the supplement of paper PMC7877785.

This series can be described thus: self-splicing fitness, log relative to wild type (ln ratio); higher = more splicing; Tetrahymena group I intron in knt gene, E. coli kanamycin selection, DiMSum; sequences stand for … in CUCUCU…GGAGGGAAAAGUUAUCAGGCAUGCACCUGGUAGCUAGUCUUUAAACCAAUAGAUUGCAUCGGUUUAAAAGGCAAGACCGUCAAAUUGCGGGAAAGGGGUCAACAGCCGUUCAGUACCAAGUCUCAGGGGAAACUUUGAGAUGGCCUUGCAAAGGGUAUGGUAAUAAGCUGACGGACAUGGUCCUAACCACGCAGCCAAGUCCUAAGUCAACAGAUCUUCUGUUGAUAUGGAUGCAGUUCACAGACUAAAUGUCGGUCGGGGAAGAUGUAUUCUUCUCAUAAGAUAUAGUCGGACCUCUCCUUAAUGGGAGCUAGCGGAUGAAGUGAUGCAACACUGGAGCCGCUGGGAACUAAUUUGUAUGCGAAAGUAUAUUGAUUAGUUUUGGAGUACUCGUGGUCG
The procedure, abridged: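 Library with all eight P1ex-region intron nucleotides randomised, intron inside the knt kanamycin-resistance gene on pET-22b(+), in E. coli BL21(DE3). Cells grew overnight at 37°C or 30°C on LB agar with or without 25 μg/mL kanamycin (plus 100 μg/mL carbenicillin, 50 μM IPTG, 0.2% rhamnose), in six replicate transformations. Pooled colonies were amplicon-sequenced on Illumina HiSeq 2500. DiMSum fitness is the error-weighted combination of wild-type-normalised replicate fold changes, kanamycin versus none.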

± gives the uncertainty stated by the source.

On to UCGUAGCAAUAUUACGACGU, for which the “self-splicing fitness (ln)” value reads like this: (30 °C) -3.04 ± 0.28; (37 °C) -1.58 ± 0.17. In the case of GUGGAGCAAUAUUACGUAGC, the “self-splicing fitness (ln)” value (30 °C) stood at 0.305 ± 0.33. For AGCAAGCAAUAUUACGGCCC, the “self-splicing fitness (ln)” value is 0.104 ± 0.19 (30 °C) and -0.363 ± 0.28 (37 °C). Take AGAAAGCAAUAUUACGCUUG: the “self-splicing fitness (ln)” value reads like this: (30 °C) -2.37 ± 0.15; (37 °C) -1.73 ± 0.18. Regarding UAACAGCAAUAUUACGAACC, the “self-splicing fitness (ln)” value is -2.12 ± 0.17 (30 °C) and -1.73 ± 0.24 (37 °C). UCCAAGCAAUAUUACGACAG: the “self-splicing fitness (ln)” value is -3.81 ± 0.35 (30 °C) and -1.47 ± 0.26 (37 °C). Regarding GUGGAGCAAUAUUACGACUU, the “self-splicing fitness (ln)” value by setting is: (30 °C) -2.79 ± 0.34; (37 °C) -0.283 ± 0.24. Consider UCCGAGCAAUAUUACGACUG, for which the “self-splicing fitness (ln)” value by setting is: (30 °C) -2.56 ± 0.34; (37 °C) -1.76 ± 0.37. For the sequence GCAUAGCAAUAUUACGGAUU, the “self-splicing fitness (ln)” value is -2.81 ± 0.11 (30 °C) and -1.29 ± 0.097 (37 °C). The corresponding values for AGUCAGCAAUAUUACGCCAU are -2.86 ± 0.25 and -1.1 ± 0.21. For UGGAAGCAAUAUUACGACUC, in that order: -0.463 ± 0.11 and -0.577 ± 0.16. For UCCGAGCAAUAUUACGAAUU, in that order: -3.49 ± 0.28 and -2.19 ± 0.35.

In the case of CUUUAGCAAUAUUACGCACC, the “self-splicing fitness (ln)” value (30 °C) is -2.92 ± 0.43. GAAGAGCAAUAUUACGACCU: the “self-splicing fitness (ln)” value (30 °C) is -1.45 ± 0.13 and the “self-splicing fitness (ln)” value (37 °C) is -0.296 ± 0.18. The corresponding values for ACGGAGCAAUAUUACGAGUU are -3.23 ± 0.22 and -2.54 ± 0.33. The corresponding values for AAGAAGCAAUAUUACGCGUG are -0.716 ± 0.073 and -0.537 ± 0.093. For UAAGAGCAAUAUUACGUAAG, in that order: -3.02 ± 0.2 and -2.1 ± 0.21. For CGAUAGCAAUAUUACGUAUG, the “self-splicing fitness (ln)” value was -1.22 ± 0.071 (30 °C) and -0.164 ± 0.096 (37 °C). For ACCGAGCAAUAUUACGCAAG, the “self-splicing fitness (ln)” value runs as follows: (30 °C) -3.36 ± 0.17; (37 °C) -2.35 ± 0.18. For the sequence CUUUAGCAAUAUUACGUCCU, the “self-splicing fitness (ln)” value (37 °C) is -1.9 ± 0.31. With CCAAAGCAAUAUUACGACGU, the “self-splicing fitness (ln)” value is, setting by setting: (30 °C) -3.76 ± 0.22; (37 °C) -2.8 ± 0.21. For AAUUAGCAAUAUUACGGCAU, in that order: 0.0829 ± 0.11 and 0.351 ± 0.11.

CACAAGCAAUAUUACGACCG: the “self-splicing fitness (ln)” value by setting is: (30 °C) 0.562 ± 0.17; (37 °C) 0.582 ± 0.2. The corresponding values for CUGCAGCAAUAUUACGAAGC are -2.78 ± 0.28 and -2.6 ± 0.28. For GGACAGCAAUAUUACGGGAC, in that order: -1.56 ± 0.13 and -1.98 ± 0.19. For GUGUAGCAAUAUUACGAUCG, in that order: -1.94 ± 0.22 and 0.634 ± 0.17.

With GGUUAGCAAUAUUACGCAGA, the “self-splicing fitness (ln)” value is -1.17 ± 0.24 (30 °C) and -2.02 ± 0.26 (37 °C). The corresponding values for CCCGAGCAAUAUUACGCUCA are -2.87 ± 0.32 and -2.7 ± 0.36. In the case of UAGGAGCAAUAUUACGUGGG, the “self-splicing fitness (ln)” value is -3.17 ± 0.24 (30 °C) and -3.32 ± 0.38 (37 °C). UCAUAGCAAUAUUACGUCCC: the “self-splicing fitness (ln)” value (30 °C) was -2.19 ± 0.49. For GCUCAGCAAUAUUACGAGCG, the “self-splicing fitness (ln)” value was -2.81 ± 0.16 (30 °C) and -0.923 ± 0.11 (37 °C). As for GUCUAGCAAUAUUACGCGAU, the “self-splicing fitness (ln)” value runs as follows: (30 °C) -1.94 ± 0.21; (37 °C) -2.29 ± 0.23. CCAUAGCAAUAUUACGGGGA: the “self-splicing fitness (ln)” value reads like this: (30 °C) -2.97 ± 0.18; (37 °C) -2.68 ± 0.22. For AAAUAGCAAUAUUACGUUGC, in that order: -2.63 ± 0.23 and -2.98 ± 0.3. For UCACAGCAAUAUUACGCUUU, in that order: -3.36 ± 0.15 and -3.6 ± 0.27. As for UAAUAGCAAUAUUACGAUUC, for the setting “37 °C”, the “self-splicing fitness (ln)” value was -2.05 ± 0.23. Consider UGACAGCAAUAUUACGGAGA, for which the “self-splicing fitness (ln)” value was -3.83 ± 0.29 (30 °C) and -1.98 ± 0.15 (37 °C). As to CGCCAGCAAUAUUACGUCGG, the “self-splicing fitness (ln)” value (30 °C) was -3.04 ± 0.21 and the “self-splicing fitness (ln)” value (37 °C) was -1.91 ± 0.21. In the case of UUUGAGCAAUAUUACGUCGC, the “self-splicing fitness (ln)” value (30 °C) is -3.06 ± 0.49 and the “self-splicing fitness (ln)” value (37 °C) was -2.07 ± 0.47.
